Measurements: publication PMC7721737, “Cytosolic sequestration of the vitamin D receptor as a therapeutic option for vitamin D-induced hypercalcemia” (Nature Communications, 2020)

How the values were obtained:
[1] = biological target: T1, full-length human vitamin D receptor (hVDR, amino acid 1-427), His-tagged (human, UniProt P11473 1-427); experiment: MST; ZK-bound VDR
T1 chain: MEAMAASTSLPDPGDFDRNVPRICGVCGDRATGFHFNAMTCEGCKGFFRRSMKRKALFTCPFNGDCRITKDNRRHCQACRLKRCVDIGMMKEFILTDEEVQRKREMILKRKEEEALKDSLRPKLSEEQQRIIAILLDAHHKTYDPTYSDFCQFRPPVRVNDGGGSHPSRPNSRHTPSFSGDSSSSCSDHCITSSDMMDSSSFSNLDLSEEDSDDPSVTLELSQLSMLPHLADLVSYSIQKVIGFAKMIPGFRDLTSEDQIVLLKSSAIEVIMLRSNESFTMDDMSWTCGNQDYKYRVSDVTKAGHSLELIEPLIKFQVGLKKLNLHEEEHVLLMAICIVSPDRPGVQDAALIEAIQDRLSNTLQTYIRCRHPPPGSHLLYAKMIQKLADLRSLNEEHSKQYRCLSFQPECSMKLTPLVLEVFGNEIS

[2] = biological target: T2, full-length human vitamin D receptor (hVDR, amino acid 1-427), His-tagged (human, UniProt P11473 1-427); experiment: MST; Monolith NT.115; 10 nM Red-NHS labelled full-length hVDR with or without ZK; unlabelled WBP4 122-196 from 100 µM to 1 nM; 20 mM Hepes pH 7.5, 200 mM NaCl, 2% glycerol, 1 mM TCEP, 0.05% Tween 20; 25 °C; 1:1 fit, apparent Kd; details: both partners purified
T2 construct: For microscale thermophoresis the protein was labelled with the Red-NHS second generation labelling kit (NanoTemper); also called NR1I1; hVDR full-length; source: E. coli BL21 DE3, purified (HisTrap, SEC)
T2 sequence (looked up): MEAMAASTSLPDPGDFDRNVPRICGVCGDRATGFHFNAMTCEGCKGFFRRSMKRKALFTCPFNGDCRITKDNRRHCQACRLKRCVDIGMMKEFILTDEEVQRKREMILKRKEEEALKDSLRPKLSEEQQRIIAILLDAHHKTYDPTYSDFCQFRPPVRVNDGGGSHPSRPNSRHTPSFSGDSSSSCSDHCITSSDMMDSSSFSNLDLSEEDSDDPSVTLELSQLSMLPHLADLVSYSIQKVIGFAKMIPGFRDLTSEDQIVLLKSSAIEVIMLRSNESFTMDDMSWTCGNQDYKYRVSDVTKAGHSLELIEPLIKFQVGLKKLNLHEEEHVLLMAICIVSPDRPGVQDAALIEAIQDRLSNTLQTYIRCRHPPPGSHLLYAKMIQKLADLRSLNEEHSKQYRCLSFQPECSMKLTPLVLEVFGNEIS

[3] = biological target: T2, full-length human vitamin D receptor …; experiment: SEC; mixed in stoichiometric amounts and purified on HiLoad Superdex 200 in 20 mM Tris pH 8.0, 75 mM NaCl, 75 mM KCl, 2 mM CHAPS, 5% glycerol, 4 mM MgSO4, 1 mM TCEP; heterodimer then used for HDX-MS (apo, 1,25D3, ZK); details: both partners purified
[4] = biological target: T3, ligand binding domain of hVDR (aa 118-427), His-tagged (human, UniProt P11473 118-427); experiment: SPR; Biacore T200, hRXRα LBD monomers amine-coupled on CM5 (400-500 RU); hVDR LBD 1-30 µM without ligand or with a 3-fold excess of 1,25D3 or ZK; 50 mM Tris pH 7.5, 150 mM NaCl, 1 mM TCEP, 0.005% Tween 20; steady state fit; details: both partners purified
T3 construct: also called hVDR LBD; source: E. coli BL21 DE3, purified (HisTrap, SEC)
T3 sequence (looked up): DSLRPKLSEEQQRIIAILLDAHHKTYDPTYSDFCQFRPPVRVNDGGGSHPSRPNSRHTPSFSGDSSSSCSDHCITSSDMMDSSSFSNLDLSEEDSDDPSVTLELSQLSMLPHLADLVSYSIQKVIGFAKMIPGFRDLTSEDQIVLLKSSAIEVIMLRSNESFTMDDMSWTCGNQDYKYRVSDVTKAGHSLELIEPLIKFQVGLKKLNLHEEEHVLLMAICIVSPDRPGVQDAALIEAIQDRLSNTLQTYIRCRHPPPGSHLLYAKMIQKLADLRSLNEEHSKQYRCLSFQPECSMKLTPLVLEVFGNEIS

B1: hWBP4 polypeptide (amino acid 122-196) encompassing the two WW domains (domain or fragment, human, UniProt O75554 122-196, looked up)
chain: DPSKGRWVEGITSEGYHYYYDLISGASQWEKPEGFQGDLKKTAVKTVWVEGLSEDGFTYYYNTETGESRWEKPDD
notes: also called FBP21; source: E. coli BL21 DE3, purified (glutathione sepharose, thrombin cleavage, SEC); not shown: GST, N-terminal, cleaved
[1]
  Kd: 11 µM
[2]
  fold increase of the affinity in the presence of ZK against without ZK: ~2 fold

B2: N-terminal domain truncated human RXRalpha (hRXRαΔNTD, amino acid 130-462), His-tagged (domain or fragment, UniProt P19793 130-462, looked up)
chain: FTKHICAICGDRSSGKHYGVYSCEGCKGFFKRTVRKDLTYTCRDNKDCLIDKRQRNRCQYCRYQKCLAMGMKREAVQEERQRGKDRNENEVESTSSANEDMPVERILEAELAVEPKTETYVEANMGLNPSSPNDPVTNICQAADKQLFTLVEWAKRIPHFSELPLDDQVILLRAGWNELLIASFSHRSIAVKDGILLATGLHVHRNSAHSAGVGAIFDRVLTELVSKMRDMQMDKTELGCLRAIVLFNPDSKGLSNPAEVEALREKVYASLEAYCKHKYPEQPGRFAKLLLRLPALRSIGLKCLEHLFFFKLIGDTPIDTFLMEMLEAPHQMT
notes: source: E. coli BL21 DE3, purified (HisTrap, SEC)
[3]
  binding result: binds

B3: ligand binding domain of hRXRα (aa 223-462), His-tagged (domain or fragment, human, UniProt P19793 223-462, looked up)
chain: TSSANEDMPVERILEAELAVEPKTETYVEANMGLNPSSPNDPVTNICQAADKQLFTLVEWAKRIPHFSELPLDDQVILLRAGWNELLIASFSHRSIAVKDGILLATGLHVHRNSAHSAGVGAIFDRVLTELVSKMRDMQMDKTELGCLRAIVLFNPDSKGLSNPAEVEALREKVYASLEAYCKHKYPEQPGRFAKLLLRLPALRSIGLKCLEHLFFFKLIGDTPIDTFLMEMLEAPHQMT
notes: Immobilised as monomers on the SPR chip; also called hRXRα LBD; source: E. coli BL21 DE3, purified (HisTrap, SEC)
[4]
  binding result: binds
